Test results from article PMC5686067, “Structural basis of adaptor-mediated protein degradation by the tail-specific PDZ-protease Prc” (Nature Communications, 2017).
Numbering of substitutions follows the chain as printed. Names may count otherwise.

B1: sNlpI (soluble NlpI without its lipoprotein signal peptide) (natural protein, E. coli, UniProt P0AFB1 20-294, looked up)
chain: SNTSWRKSEVLAVPLQPTLQQEVILARMEQILASRALTDDERAQLLYERGVLYDSLGLRALARNDFSQALAIRPDMPEVFNYLGIYLTQAGNFDAAYEAFDSVLELDPTYNYAHLNRGIALYYGGRDKLAQDDLLAFYQDDPNDPFRSLWLYLAEQKLDEKQAKEVLKQHFEKSDKEQWGWNIVEFYLGNISEQTLMERLKADATDNTSLAEHLSETNFYLGKYYLSLGDLDSATALFKLAVANNVHNFVEHRYALLELSLLGQDQDDLAESDQQ
notes: NlpI, E. coli outer-membrane lipoprotein with four tetratricopeptide repeats, residues S20-Q294, without the lipoprotein signal peptide; Homodimer by AUC and in the crystal. pET28a vector with N-terminal His-tag; no removal of the tag is described; also called WT-NlpI; wild-type sNlpI; source: E. coli BL21(DE3), purified (Ni-NTA, MonoQ, Superdex 200); cleared cell lysate in the pull-down; not …
B2: sNlpI-L38C (natural protein, E. coli, UniProt P0AFB1 20-294, looked up)
chain: B1 chain with L19C
notes: NlpI, E. coli, residues S20-Q294 without the signal peptide, L38C in helix h1; source: E. coli BL21(DE3), purified (Ni-NTA, MonoQ, Superdex 200)
B3: sNlpI-R82E (natural protein, E. coli, UniProt P0AFB1 20-294, looked up)
chain: B1 chain with R63E
notes: NlpI, E. coli, residues S20-Q294 without the signal peptide, R82E in helix TPR1b; source: E. coli BL21(DE3), purified (Ni-NTA, MonoQ, Superdex 200)
B4: sNlpI-L38A (natural protein, E. coli, UniProt P0AFB1 20-294, looked up)
chain: B1 chain with L19A
notes: NlpI, E. coli, residues S20-Q294 without the signal peptide, L38A in helix h1; source: E. coli BL21(DE3), purified (Ni-NTA, MonoQ, Superdex 200)

Target: the molecule itself
Assay: AUC; sedimentation velocity, absorbance optics, 20 mM Tris-HCl pH 8.0, 100 mM NaCl, 2 mM DTT, 20 °C, c(s) model in Sedfit

Protein	stoichiometry N
B1	2
B2	2
B3	2
B4	2
